# Test results from patent US20020193570A1.
# Assays:
# [1] = molecular target: IL-12 receptor on human PBMC (human) (UniProt P42701); experiment: cell-based or functional assay
# [2] = molecular target: IL-12 receptor on mouse effector cells (mouse) (UniProt Q60837); experiment: cell-based or functional assay
# [3] = molecular target: KS antigen recognized by the KS-1/4 antibody (plate-coated / as antigen) (UniProt P16422); experiment: ELISA, plates coated with KS antigen, detection with anti-human IL-12 p40 antibody
# Sequence of KS antigen recognized by the KS-1/4 antibody (plate-coated / as antigen) (P16422 24-265 limits assumed): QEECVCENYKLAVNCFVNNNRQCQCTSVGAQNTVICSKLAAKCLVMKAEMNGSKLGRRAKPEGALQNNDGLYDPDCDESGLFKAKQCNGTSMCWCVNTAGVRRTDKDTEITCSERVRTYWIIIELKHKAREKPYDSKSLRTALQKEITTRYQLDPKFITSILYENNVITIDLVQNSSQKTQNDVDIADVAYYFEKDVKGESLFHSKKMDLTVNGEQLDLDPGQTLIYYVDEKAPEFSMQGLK
# Sequence of IL-12 receptor on human PBMC (human) (Q99665 24-862, chain 2 of 2, other chains not shown): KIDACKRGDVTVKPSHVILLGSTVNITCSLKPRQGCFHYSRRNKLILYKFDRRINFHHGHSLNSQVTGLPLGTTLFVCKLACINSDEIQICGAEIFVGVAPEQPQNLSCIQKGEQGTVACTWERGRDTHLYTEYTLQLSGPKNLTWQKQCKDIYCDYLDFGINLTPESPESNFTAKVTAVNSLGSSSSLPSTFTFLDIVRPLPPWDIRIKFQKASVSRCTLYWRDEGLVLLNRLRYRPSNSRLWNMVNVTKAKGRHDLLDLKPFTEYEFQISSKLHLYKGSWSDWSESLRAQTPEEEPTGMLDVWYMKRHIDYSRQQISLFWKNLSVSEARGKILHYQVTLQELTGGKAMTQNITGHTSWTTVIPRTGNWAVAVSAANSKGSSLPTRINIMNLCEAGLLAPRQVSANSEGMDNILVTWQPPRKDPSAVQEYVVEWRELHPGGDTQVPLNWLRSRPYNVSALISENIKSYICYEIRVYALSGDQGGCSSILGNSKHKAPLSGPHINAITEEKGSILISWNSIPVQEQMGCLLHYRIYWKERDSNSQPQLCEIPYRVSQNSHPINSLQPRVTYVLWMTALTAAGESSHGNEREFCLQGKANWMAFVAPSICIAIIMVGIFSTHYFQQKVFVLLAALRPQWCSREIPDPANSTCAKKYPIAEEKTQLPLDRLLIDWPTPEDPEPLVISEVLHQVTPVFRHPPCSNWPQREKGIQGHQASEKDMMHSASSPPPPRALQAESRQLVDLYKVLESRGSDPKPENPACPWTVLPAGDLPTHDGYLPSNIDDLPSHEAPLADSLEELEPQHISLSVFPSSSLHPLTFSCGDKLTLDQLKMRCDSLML
# Sequence of IL-12 receptor on mouse effector cells (mouse) (Q60837 20-738, chain 1 of 2): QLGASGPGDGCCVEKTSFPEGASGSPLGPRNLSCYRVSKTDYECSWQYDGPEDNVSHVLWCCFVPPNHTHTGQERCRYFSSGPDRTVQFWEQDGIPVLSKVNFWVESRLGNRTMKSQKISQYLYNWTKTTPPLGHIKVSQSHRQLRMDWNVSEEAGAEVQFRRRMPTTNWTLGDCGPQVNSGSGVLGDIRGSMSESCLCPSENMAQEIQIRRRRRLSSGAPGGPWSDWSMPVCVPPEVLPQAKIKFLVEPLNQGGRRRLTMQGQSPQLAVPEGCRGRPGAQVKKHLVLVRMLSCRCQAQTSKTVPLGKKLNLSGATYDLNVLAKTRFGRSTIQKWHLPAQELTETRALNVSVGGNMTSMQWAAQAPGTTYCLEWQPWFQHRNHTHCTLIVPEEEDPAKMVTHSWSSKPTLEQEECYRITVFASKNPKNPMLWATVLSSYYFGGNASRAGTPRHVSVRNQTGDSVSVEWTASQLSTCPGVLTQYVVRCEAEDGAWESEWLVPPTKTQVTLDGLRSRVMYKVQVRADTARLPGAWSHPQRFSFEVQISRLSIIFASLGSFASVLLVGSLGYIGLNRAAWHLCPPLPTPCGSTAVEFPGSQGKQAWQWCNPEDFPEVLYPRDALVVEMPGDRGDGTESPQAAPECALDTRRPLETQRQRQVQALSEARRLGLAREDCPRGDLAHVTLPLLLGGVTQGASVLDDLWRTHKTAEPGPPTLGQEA
# Sequence of IL-12 receptor on mouse effector cells (mouse) (P97378 24-874, chain 2 of 2, further chain): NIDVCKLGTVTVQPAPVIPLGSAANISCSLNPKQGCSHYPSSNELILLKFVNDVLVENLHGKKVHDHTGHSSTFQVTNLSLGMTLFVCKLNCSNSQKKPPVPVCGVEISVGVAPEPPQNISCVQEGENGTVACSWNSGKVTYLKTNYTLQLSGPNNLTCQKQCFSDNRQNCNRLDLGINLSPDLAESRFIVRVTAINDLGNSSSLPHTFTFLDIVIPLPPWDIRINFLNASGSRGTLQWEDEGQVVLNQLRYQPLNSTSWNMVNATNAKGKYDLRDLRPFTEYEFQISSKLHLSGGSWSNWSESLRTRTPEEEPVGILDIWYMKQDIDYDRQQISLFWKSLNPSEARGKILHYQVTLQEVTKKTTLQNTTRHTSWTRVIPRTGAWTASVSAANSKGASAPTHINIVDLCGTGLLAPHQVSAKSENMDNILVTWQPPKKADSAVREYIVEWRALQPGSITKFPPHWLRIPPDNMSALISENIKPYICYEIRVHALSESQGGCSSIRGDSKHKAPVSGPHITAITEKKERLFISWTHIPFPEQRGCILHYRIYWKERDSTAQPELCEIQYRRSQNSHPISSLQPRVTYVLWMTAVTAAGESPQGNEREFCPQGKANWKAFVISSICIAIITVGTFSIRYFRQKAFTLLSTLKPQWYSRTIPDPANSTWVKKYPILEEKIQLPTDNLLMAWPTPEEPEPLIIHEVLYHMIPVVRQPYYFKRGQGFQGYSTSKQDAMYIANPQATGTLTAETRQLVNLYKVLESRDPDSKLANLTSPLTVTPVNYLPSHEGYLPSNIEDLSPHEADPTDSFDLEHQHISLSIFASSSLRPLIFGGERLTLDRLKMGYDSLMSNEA
substance,measurement,setting,value
Hu-KS-1/4-mouse p35 human p40 fusion protein (from UniProt P01857 1-330; P43431 23-215; P29460 23-328) (antibody),induction of IFN-γ secretion from PHA-activated PBMC,[1]; scale: fold less active than Hu-KS-IL-12 with human IL-12 chains,4
same,induction of IFN-γ secretion from mouse effector cells pre-stimulated with Concanavalin A,[2]; scale: fold less active than the mouse IL-12 standard,50
Hu-KS-IL-12 fusion protein with both human IL-12 chains (from UniProt P01857 1-330; P29459 23-219; P29460 23-328) (antibody),induction of IFN-γ secretion from PHA-activated PBMC (fold less active than the IL-12 standard),[1],6
single-chain fusion protein with a mouse p35 subunit and a human p40 subunit (KS-1/4 scFv-mouse p35/human p40) (from UniProt P43431 23-215; P29460 23-328),induction of IFN-γ secretion from mouse cells (fold less than the mouse IL-12 control),[2],50
same,intensity of binding against the whole KS-1/4 antibody (fold lower than whole KS-1/4 antibody),[3],3
single-chain fusion protein with human p35 and p40 subunits (KS-1/4 scFv-human IL-12) (from UniProt P29459 23-219; P29460 23-328),intensity of binding against the whole KS-1/4 antibody (fold lower than whole KS-1/4 antibody),[3],3
